Here are results for five molecules from patent US12319742.

In assay [1] the target is human TNFRSF25 over-expressed on CHOK1 cells (cDNA sequence NP_683866) (human) (UniProt Q93038). The assay is described as follows: flow cytometry competition (upper panel); CHOK1-TNFRSF25+ cells with antibody 30 min at 4 C, then biotinylated human TL1A-Fc at 156 nM, PE-streptavidin.
For assay [2] the target is unchanged. The assay is described as follows: flow cytometry on CHOK1-TNFRSF25+ cells (lower panel), 1 h at 4 C, APC anti-human Fc.
For assay [3] the target is unchanged. The assay is described as follows: flow cytometry on CHOK1-TNFRSF25+ cells; APC anti-human Fc. (In general: A flow cytometer gives signals particle by particle.)

B1: NH24-35 (antibody) (antibody, V domains shown)
VH: EVQLVESGGGSVQPGGSLRLSCAASGFTFSSYGMSWIRQAPGKGLEWVSYISSSGGHTYYADSVKGRFTISRDNAKNSLYLQMNSLRAEDTAVYYCARYSGAFDHWGQGTLVTVSS
VL: DIVMTQSPSSLSASVGDRVTITCQASQDITNYLSWYQQKPGKAPKLLINDASNLETGVPSRFSGSGSGTDFTFTISSLQPEDIATYYCQQYDTLPITFGQGTRLEIKR
For the molecule B1, the 50% inhibitory concentration (IC50) – broadly, the concentration needed to halve the response being measured – in assay [1] amounted to 4 nM.

B2: NH24-162 (antibody, V domains shown)
VH: EVQLVESGGGSVQPGGSLRLSCAASGFTFSSYGMSWVRQAPGKGLEWISYISSSGGHTYYADSVKGQFTISRDNAKNSLYLQMNSLRAEDTAVYYCARGSGSFDYWGQGTLVTVSS
VL: DIVMTQSPSSLSASVGDRVTITCQASQDISNYLSWYQQKPGKAPKLLISDASNLETGVPSRFSGSGSGTDFTFTISSLQPEDIATYYCQQYDNLPITFGQGTRLEIKR
Take B2: the IC50 in assay [1] is 49 nM.

B3: NH24-72 (antibody, V domains shown)
VH: EVQLVESGGGSVQPGGSLRLSCAASGFTFSSYGMNWIRQAPGKGLEWITYISSSGGHTYYADSVKGRFTISRDNAKNSLYLQMNSLRAEDTAVYYCARGQGPFEYWGQGTLVTVSS
VL: DIVMTQSPSSLSASVGDRVTITCQASQDISNYLSWYQQKPGKAPKLLINDASNLETGVPSRFSGSGSGTDFTFTISSLQPEDIATYYCQQYDNLPITFGQGTRLEIKR
In assay [1], B3 had an IC50 of 8 nM. This IC50 lies about 6.1-fold lower than the previous one.

B4: SL-061mut213 (antibody, human IgG1, kappa, V domains shown)
VH: QVQLQQSGPGLVKPSQTLSLTCAISGDSVSSYSAAWNWIRQSPSRGLEWLGRTYYRSKWFNDYAVSVKSRITINPDTSKNQFSLQLNSVTPEDTAVYYCARDYYGSESYYNRGYYYYGLDVWGQGTTVTVSS
VL: AIQLTQSPSSLSASVGDRVTITCRASPSISSALAWYQQKPGKAPKLLMYDESSQEGSVPSRFSGSGSGTDFTLTISSLQPEDFATYYCQQFNEYPLTFGGGTKVEIKR
Consider B4, for which the EC50 (read off the curve) (usually the concentration at which the effect is half-maximal) in assay [2] is 0.003 nM.

B5: NH46 (whole antibody) (antibody, human IgG1, kappa, V domains shown)
VH: QVQLVQSGSEVKKPGASVRVSCKVSGSTVKELSMHWVRQAPGKGLEWMGGYDPEDGESIFAQKFQGRVNMTEDRSTDTAYMELSSLRSEDTAVYYCATDLNWEDAFDVWGQGTMVTVSS
VL: QSVLTQPPSVSAAPGQKVTISCSGSGSNIGNYYVAWYQQFPGTAPKLLIYDNNKRPSGIPDRFSGSKSGTSATLGITGLQTGDEADYYCGTWDTSLTAGDIYVFGTGTKVTVLR
In the case of B5, the EC50 (usually the concentration that produces a half-maximal response) in assay [3] amounted to 0.05 nM. In addition, the IC50 in assay [1] was found to be 49 nM.
